Data published in US20160324962A1 (AstraZeneca / MedImmune, published 2016).

Key:
[1] = molecular target: T1, human insulin-like growth factor 2 (IGF-2) (human, UniProt P01344 25-91); experiment: cell-based or functional assay
[2] = molecular target: T2, human insulin-like growth factor 1 (IGF-1) (human, UniProt P05019 49-118); experiment: cell-based or functional assay
[3] = molecular target: T1, human insulin-like growth factor 2 …; experiment: method not stated; affinity quoted in Example 3
[4] = molecular target: T2, human insulin-like growth factor 1 …; experiment: method not stated; affinity quoted in Example 3

T2 sequence (P05019 49-118 limits assumed): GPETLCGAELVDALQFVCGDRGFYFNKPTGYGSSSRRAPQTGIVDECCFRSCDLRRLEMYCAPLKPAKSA
T1 sequence (P01344 25-91 limits assumed): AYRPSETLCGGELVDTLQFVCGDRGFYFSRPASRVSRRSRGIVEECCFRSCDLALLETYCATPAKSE

B1: MEDI-573 (antibody, human IgG2, lambda, V domains shown)
VH: QVQLVQSGAEVKKPGASVKVSCKASGYTFTSYDINWVRQATGQGLEWMGWMNPNSGNTGYAQKFQGRVTMTRNTSISTAYMELSSLRSEDTAVYYCARDPYYYYYGMDVWGQGTTVTVSS
VL: QSVLTQPPSVSAAPGQKVTISCSGSSSNIENNHVSWYQQLPGTAPKLLIYDNNKRPSGIPDRFSGSKSGTSATLGITGLQTGDEADYYCETWDTSLSAGRVFGGGTKLTVLG
notes: also called mAb 7.159.2; anti-IGF antibody
- IC50 (µM), inhibition of IGF-2-stimulated proliferation of MG-63 cells (CellTiter-Glo) [1]: 5.8 µM
- IC50 (µM), inhibition of IGF-2-stimulated proliferation of RD-ES cells (CellTiter-Glo) [1]: 2 µM
- IC50 (µM), inhibition of IGF-2-stimulated proliferation of SAOS2 cells (CellTiter-Glo) [1]: 5.3 µM
- IC50 (µM), inhibition of IGF-2-stimulated proliferation of SK-ES-1 cells (CellTiter-Glo) [1]: 20 µM
- IC50 (µM), inhibition of IGF-1-stimulated proliferation of MG-63 cells (CellTiter-Glo) [2]: 223 µM
- IC50 (µM), inhibition of IGF-1-stimulated proliferation of RD-ES cells (CellTiter-Glo) [2]: 40 µM
- IC50 (µM), inhibition of IGF-1-stimulated proliferation of SAOS2 cells (CellTiter-Glo) [2]: 177 µM
- IC50 (µM), inhibition of IGF-1-stimulated proliferation of SK-ES-1 cells (CellTiter-Glo) [2]: 20 µM
- Kd [3]: 2 pM
- Kd [4]: 0.000294 µM
